Experiment [1] has as its target cIAP2 BIR1 (Homo sapiens) (UniProt Q13489). To be noted: cited from earlier work.
Experiment [2] has as its target T1, TRAF2 segment (recombinant, ITC) (human, UniProt Q12933 1-501).
T1 construct: human TRAF2 segment; it compares with Zheng et al. (2010); source: E. coli BL21 (DE3), purified (Ni-Sepharose, HiTrap Q, Superdex 200); not shown: His-SUMO, N-terminal, cleaved
T1 sequence (looked up): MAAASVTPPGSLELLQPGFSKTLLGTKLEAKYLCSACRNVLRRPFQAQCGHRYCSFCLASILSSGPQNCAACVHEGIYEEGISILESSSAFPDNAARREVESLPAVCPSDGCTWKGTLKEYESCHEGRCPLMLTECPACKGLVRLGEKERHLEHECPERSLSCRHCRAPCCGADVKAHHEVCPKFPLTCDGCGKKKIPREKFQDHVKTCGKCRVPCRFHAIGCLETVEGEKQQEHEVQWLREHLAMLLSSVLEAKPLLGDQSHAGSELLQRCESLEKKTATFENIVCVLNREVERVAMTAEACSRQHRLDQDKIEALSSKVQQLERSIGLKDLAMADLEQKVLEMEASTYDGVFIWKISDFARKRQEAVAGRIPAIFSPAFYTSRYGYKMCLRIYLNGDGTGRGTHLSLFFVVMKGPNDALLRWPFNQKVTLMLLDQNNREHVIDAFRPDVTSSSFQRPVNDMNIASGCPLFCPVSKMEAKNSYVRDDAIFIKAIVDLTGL
Nature of the experiment: ITC; cIAP2 protein (2-4 mM) injected into 0.20 mM TRAF2; 16°C; 25 mM Tris-HCl pH 8.0, 150 mM NaCl; MicroCal ITC200.

Where two headings read alike, the source gives them in different places.

For three molecules, Kd results are on record in PMC5823975, “Ubiquitin-Mediated Regulation of RIPK1 Kinase Activity Independent of IKK and MK2” (Molecular Cell, 2018).

Usually Kd stands for the free concentration of one partner at which half of the binding sites on the other are occupied at equilibrium, for simple one-to-one binding.

Consider TRAF2 (from UniProt Q12933), for which the Kd in experiment [1] was 1700 nM.

For the molecule “UBA domain of cIAP2 (from UniProt Q13489 372-425) (domain or fragment)”, the equilibrium dissociation constant (Kd) in experiment [2] was found to be 480 µM.

B1: cIAP2 segment with the BIR1 in conjunction with the UBA domain (domain or fragment)
chain: LSCELYRMSTYSTFPAGVPVSERSLARAGFYYTGVNDKVKCFCCGLMLDNWKRGDSPTEKHKKLYPSCRFVQSLNSVNNLEATSQPTFPSSVTNSTHSLLPGTENSGYFRGSYSNSPSNPVNSRANQDFSALMRSSYHCAMNNENARLLTFQTWPLTFLSPTDLAKAGFYYIGPGDRVACFACGGKLSNWEPKDNAMSEHLRHFPKCPFIENQLQDTSRYTVSNLSMQTHAARFKTFFNWPSSVLVNPEQLASAGFYYVGNSDDVKCFCCDGGLRCWESGDDPWVQHAKWFPRCEYLIRIKGQEFIRQVQASYPHLLEQLLSTSDSPGDENAESSIIHFEPGEDHSEDAIMMNTPVINAAVEMGFSRSLVKQTVQRKILATGENYRLVNDLVLDLLNAEDEIREEERERAT
modifications: Zn2+ bound by the BIR domains
As to B1, in experiment [2] (both partners purified), the Kd stood at 0.43 µM.
